Measurements: US20120172295A1 (INDIANA UNIVERSITY RESEARCH AND TECHNOLOGY, published 2012)
Read-outs that look alike come from different tables or passages of the source. Blank lines part the entries; values can stand above or below the binder they belong to. Non-standard residues stand in square brackets, D forms with d. No end group written: not given here. *: point of attachment. Palmitoyl = CCCCCCCCCCCCCCCC(=O)*; Aib = CC(C)(N)C(=O)O

Experiments:
Test in all cases: cell-based or functional assay
[1] = molecular target: T1, glucagon receptor (UniProt P47871 26-477, limits assumed)
[2] = molecular target: T2, GLP-1 receptor (UniProt P43220 24-463, limits assumed)
[3] = molecular target: T1, glucagon receptor; remark: listed apart in the source
[4] = molecular target: T2, GLP-1 receptor; remark: listed apart in the source
[5] = molecular target: T1, glucagon receptor; remark: listed apart in the source
[6] = molecular target: T2, GLP-1 receptor; remark: listed apart in the source
[7] = molecular target: T1, glucagon receptor; remark: listed apart in the source
[8] = molecular target: T2, GLP-1 receptor; remark: listed apart in the source
[9] = molecular target: T1, glucagon receptor; remark: listed apart in the source
[10] = molecular target: T2, GLP-1 receptor; remark: listed apart in the source
[11] = molecular target: T1, glucagon receptor; remark: listed apart in the source
[12] = molecular target: T1, glucagon receptor; remark: listed apart in the source
[13] = molecular target: T2, GLP-1 receptor; remark: listed apart in the source
[14] = molecular target: T1, glucagon receptor; remark: listed apart in the source
[15] = molecular target: T2, GLP-1 receptor; remark: listed apart in the source

T1 sequence (P47871 26-477 limits assumed): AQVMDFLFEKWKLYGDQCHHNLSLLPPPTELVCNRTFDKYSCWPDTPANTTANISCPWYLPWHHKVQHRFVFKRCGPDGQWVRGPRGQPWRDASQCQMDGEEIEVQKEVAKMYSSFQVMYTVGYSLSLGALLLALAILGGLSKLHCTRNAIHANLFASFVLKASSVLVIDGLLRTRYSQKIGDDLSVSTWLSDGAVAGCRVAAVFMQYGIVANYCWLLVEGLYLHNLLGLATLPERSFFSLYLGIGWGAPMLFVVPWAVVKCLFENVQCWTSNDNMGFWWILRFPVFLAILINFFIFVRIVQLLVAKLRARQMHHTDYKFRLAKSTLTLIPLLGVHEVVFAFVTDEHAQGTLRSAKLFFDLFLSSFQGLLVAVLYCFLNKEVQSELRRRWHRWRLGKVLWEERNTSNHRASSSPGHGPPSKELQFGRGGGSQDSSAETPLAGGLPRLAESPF

glucagon agonism [11]: > 10 fold
Binder: HSEGTFTSDYSKYLDEQAAKEFIC(PEG 20 kDa)WLMNT-NH2 [Peptide V]

EC50 [12]: 0.761 nM | EC50 (20% human plasma) [12]: 0.313 nM | EC50 (20% human plasma) [13]: 0.017 nM
B1: AIB2, AIB16, K10(C16), K30 Glucagon Amide (peptide)
peptide: H[Aib]QGTFTSDK(Palmitoyl)SKYLD[Aib]RRAQDFVCWLMNTK-NH2
modifications: N-terminus assumed
SMILES: CCCCCCCCCCCCCCCC(=O)NCCCC[C@H](NC(=O)[C@H](CC(=O)O)NC(=O)[C@H](CO)NC(=O)[C@@H](NC(=O)[C@H](Cc1ccccc1)NC(=O)[C@@H](NC(=O)CNC(=O)[C@H](CCC(N)=O)NC(=O)C(C)(C)NC(=O)[C@@H](N)Cc1c[nH]cn1)[C@@H](C)O)[C@@H](C)O)C(=O)N[C@@H](CO)C(=O)N[C@@H](CCCCN)C(=O)N[C@@H](Cc1ccc(O)cc1)C(=O)N[C@@H](CC(C)C)C(=O)N[C@@H](CC(=O)O)C(=O)NC(C)(C)C(=O)N[C@@H](CCCNC(=N)N)C(=O)N[C@@H](CCCNC(=N)N)C(=O)N[C@@H](C)C(=O)N[C@@H](CCC(N)=O)C(=O)N[C@@H](CC(=O)O)C(=O)N[C@@H](Cc1ccccc1)C(=O)N[C@H](C(=O)N[C@@H](CS)C(=O)N[C@@H](Cc1c[nH]c2ccccc12)C(=O)N[C@@H](CC(C)C)C(=O)N[C@@H](CCSC)C(=O)N[C@@H](CC(N)=O)C(=O)N[C@H](C(=O)N[C@@H](CCCCN)C(N)=O)[C@@H](C)O)C(C)C

The next lines start with the binder.

Binder: HSQGTFTSDYSKYLDERRAKDFVQWLMNT-NH2 [E16 K20-glucagon-NH2]
Percent Potency Relative to Native Ligand [1]: 130% | Percent Potency Relative to Native Ligand [2]: 41.5% | Percent Potency Relative to Native Ligand [3]: 130% | Percent Potency Relative to Native Ligand [4]: 41.5% | EC50 [5]: 0.18 nM | EC50 [6]: 0.21 nM | EC50 [7]: 0.18 nM | EC50 [8]: 0.21 nM | EC50 [9]: 0.203 nM | EC50 [10]: 0.188 nM

Binder: HSEGTFTSDYSKYLDERRAQDFVQWLMNT-NH2 [E3, E16 Gluc-NH2]
Percent Potency Relative to Native Ligand [14]: 1.6% | Percent Potency Relative to Native Ligand [15]: 28.8%
